This is an account of results in doi:10.1101/2020.01.12.903617, “The peptide sensor motif stabilizes the outward-facing conformation of TmrAB” (bioRxiv, 2020).

No end group written: not given here. fluorescein = fluorescein label attached to the Cys side chain

For the assay, the target named is T1, TmrAB R132A^TmrA (Thermus thermophilus, UniProt Q72J05 1-600; Q72J04 1-578, R132A).
T1 construct: TmrA, Thermus thermophilus, the chain of TmrAB with the canonical Walker B motif; TmrB, Thermus thermophilus, the chain of TmrAB with the non-canonical Walker B motif
T1 sequence 1: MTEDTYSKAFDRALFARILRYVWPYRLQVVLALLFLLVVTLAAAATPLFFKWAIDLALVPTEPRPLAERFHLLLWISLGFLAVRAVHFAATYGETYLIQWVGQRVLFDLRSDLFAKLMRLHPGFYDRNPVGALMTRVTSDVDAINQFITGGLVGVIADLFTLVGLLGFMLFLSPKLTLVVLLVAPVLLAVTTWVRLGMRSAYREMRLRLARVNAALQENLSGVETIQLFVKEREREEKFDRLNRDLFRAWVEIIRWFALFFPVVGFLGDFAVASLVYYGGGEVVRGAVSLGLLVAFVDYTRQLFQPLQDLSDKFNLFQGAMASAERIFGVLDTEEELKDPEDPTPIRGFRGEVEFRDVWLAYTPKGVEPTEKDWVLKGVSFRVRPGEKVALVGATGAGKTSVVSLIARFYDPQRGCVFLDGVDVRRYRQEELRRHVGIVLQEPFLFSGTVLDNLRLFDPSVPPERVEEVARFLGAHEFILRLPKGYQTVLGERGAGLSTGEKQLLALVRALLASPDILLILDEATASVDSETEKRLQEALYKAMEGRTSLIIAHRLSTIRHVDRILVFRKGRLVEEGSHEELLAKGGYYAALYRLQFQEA
T1 sequence 2: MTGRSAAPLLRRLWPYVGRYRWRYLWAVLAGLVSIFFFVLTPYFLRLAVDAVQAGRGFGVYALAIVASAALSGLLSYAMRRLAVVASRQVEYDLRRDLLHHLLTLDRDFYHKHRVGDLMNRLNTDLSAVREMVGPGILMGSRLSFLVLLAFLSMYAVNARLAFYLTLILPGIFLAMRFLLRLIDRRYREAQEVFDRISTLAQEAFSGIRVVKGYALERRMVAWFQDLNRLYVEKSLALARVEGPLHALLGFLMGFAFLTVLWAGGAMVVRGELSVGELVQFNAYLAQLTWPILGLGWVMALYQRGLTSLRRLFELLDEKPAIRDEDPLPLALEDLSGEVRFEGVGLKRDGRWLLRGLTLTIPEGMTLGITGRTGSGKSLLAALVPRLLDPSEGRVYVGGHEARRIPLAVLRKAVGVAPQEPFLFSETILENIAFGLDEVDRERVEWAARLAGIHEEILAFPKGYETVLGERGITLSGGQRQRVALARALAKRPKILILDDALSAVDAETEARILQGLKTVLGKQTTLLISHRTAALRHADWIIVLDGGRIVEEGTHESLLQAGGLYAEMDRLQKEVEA
The assay is described as follows: fluorescence polarisation; 1.7 uM TmrAB with 50 nM RRY(C^Fluorescein)KSTEL in SEC buffer (20 mM HEPES, 150 mM NaCl, pH 7, 0.05% ß-DDM), 15 minutes on ice, in the absence or presence of 5 mM ATP and 10 mM MgCl2; read at 25°C (the results say 4°C); signal normalized to WT without ATP. Conditions: both partners purified.

B1: fluorescent transport substrate peptide RRY(C^Fluorescein)KSTEL (peptide)
peptide: RRYC(fluorescein)KSTEL
notes: fluorescein-labelled transport substrate peptide of TmrAB; also called fluorescently-labeled peptide substrate; peptide substrate; source: bought: Genscript
For B1, the binding result is “binds”.
